Results on one substance are retold here after patent US11419837B2, “Modified release orally administered amino acid formulations” (APR APPLIED PHARMA RESEARCH S.A., priority 2015, dated 2022).

Series [1] is described as follows: In vivo bioavailability in pig: mean of branched chain amino acid (BCAA) plasma concentrations. As to conditions: BCAA (RAW DATA), pigs, oral by gavage, 0.8 g of amino acid/kg body weight. On the procedure: (§1) The following formulations were tested: • APR-04 (bkT037/72-4) • APR-07 (bkT037/73-7) • Free amino acid (bkT037/71) • Casein In Vivo Study Design: • Subjects: 8 pigs • Design: 4 formulations in crossover • Administration route and method: oral, by gavage. The product dose was administered to each animal mixed with a small amount of water (300 ml) in order to ensure fast (≤5 minutes) assumption. The total amount of the product was administered using syringes. The animals were fasted for 13.5±0.5 hours before the treatment and the access to water was suspended one hour before and one hour after the treatment. • Dose, frequency and duration of administration: The amount of product administered was based on body-weight and equaled 0.8 g of amino acid/kg body weight for each test product. The products were administered by a single administration in the morning of each day of treatment. • Wash out: 48-72 hours • Blood sampling: 0.75 h before Treatment (T), 0.5 h before T, 0.25 h before T, 0.25 h after T, 0.5 h after T, 0.75 h after T, 1 h after T, 1.25 h after T, 1.5 h after T, 2 h after T, 2.5 h after T, 3 h after T, 4 h after T, 5 h after T • Analysis: The plasma concentrations of 14 amino acids (Alanine, Arginine, Glutamine, Glycine, Histidine, Isoleucine, Leucine, Lysine, Proline, Serine, Threonine, Tryptophan, Tyrosine, Valine) were measured and analyzed. Methionine and Aspartic acid were excluded from the analysis due to stability issues. The following parameters were evaluated: Area Under the concentration/time Curve (AUC0-last), peak concentration (Cmax), time to peak concentration (Tmax) and Clast. The behavior of the two APR Formulations was compared to the formulation of Free Amino Acids and Casein. Results:
The amino acids aggregated together for analysis were valine, isoleucine and leucine. This subgroup of essential amino acids was chosen for analysis because these essential amino acids are unique among amino acids in that their first catabolic step cannot occur in the liver. As a consequence, they largely escape first-pass splanchnic metabolism (Brosnan et al).
The statistical analysis for the date reported in Table 14e (for AUC, Cmax, and Clast: one-way repeated measures ANOVA with post hoc analysis with Bonferroni adjustment; for Tmax: Friedman test followed by multiple sign test for pairwise comparison) is reported in Table 14f

Series [2] is described as follows: In vivo bioavailability in pig: mean aggregate plasma concentrations of 14 amino acids. As to conditions: pigs, oral by gavage; for AUC 0-last / Cmax: 0.8 g of amino acid/kg body weight. On the procedure:
as §1, with “Results: […]” for “Results:”

Series [3] is described as follows: In vivo bioavailability in pig: large neutral amino acid (LNAA) plasma concentrations. The note with it: LNAA (RAW DATA), pigs, oral by gavage. The protocol:
as §1
The amino acids aggregated together for analysis were tryptophan, threonine, valine, isoleucine, leucine, histidine. […] Phenylalanine was excluded from the analysis because it was not present in the formulations tested. This subgroup of essential amino acids was chosen for analysis because LNAA share with phenylalanine a common transport system in order to enter the brain. High plasma concentration of LNAAs may reduce the uptake into the brain(Van Spronsen et al). might thus bring clinical advantages. In particular, if the analysis on the subgroup show an increased Clast for the APR formulations versus the free amino acid formulations, it can be speculated that the patient may have a sort of “prolonged protection/tolerance” to phenylalanine.

The nature of series [4]: In vivo bioavailability in pig: mean of analyzed essential amino acid plasma concentrations. The note with it: ESSENTIAL AA (RAW DATA), pigs, oral by gavage, 0.8 g of amino acid/kg body weight. On the procedure: as §1
The amino acids aggregated together for analysis were Arginine, Histidine, Isoleucine, Leucine, Threonine, Lysine, Tryptophan and Valine. This subgroup was chosen for analysis because these amino acids cannot be endogenously synthesized. As a result, their concentrations in plasma from sampling the jugular vein may be more representative of the intestinal adsorption of the tested formulations than the non-essential amino acids whose presence in blood could be independently generated by the organism.
The statistical analysis for the date reported in Table 14c (for AUC, Cmax, and Clast: one-way repeated measures ANOVA with post hoc analysis with Bonferroni adjustment; for Tmax: Friedman test followed by multiple sign test for pairwise comparison) is reported in Table 14d.

[5] abbreviates: 14 AA (BC DATA, basal values subtracted).
The mark [6] stands for this setting: 14 AA (RAW DATA, basal values not subtracted).
Setting [7] is: tryptophan, threonine, valine, isoleucine, leucine, histidine, 0.8 g of amino acid/kg.

In general, Cmax refers to the peak of the concentration-time curve. Usually Tmax stands for the time at which the peak concentration occurs. For Casein, the Clast was determined as 228.7 in series [1] (last sampling (5h)); 172.9 in series [2] (14 AA (RAW DATA), plasma concentration at the last sampling (5h), 0.8 g of amino acid/kg); 143.0 in series [3] (last sampling (5h), 0.8 g of amino acid/kg body weight); 153.0 in series [4] (last sampling (5h)). In addition, the “AUC 0-last” value in series [1] (valine, isoleucine and leucine) is 1365.3; in series [2] (setting [5]), 258.9; in series [2] (setting [6]) it was 1125.6; in series [3] (setting [7]) it was 868.9; in series [4], 969.9. Further, the Cmax is 401 µM in series [1] (valine, isoleucine and leucine); 147 µM in series [2] (setting [5]); 325 µM in series [2] (setting [6]); 257 µM in series [3] (setting [7]); 299 µM in series [4]. Also, the time to peak (Tmax) amounted to 1.16 h in series [1] (valine, isoleucine and leucine); 1.16 h in series [3] (setting [7]); 1.16 h in series [4].
